The values that follow come from patent publication US20230365696A1 (SYNTHEKINE, published 2023).

Test [1] addresses T1, extracellular domain of hIFNgR1 (human, UniProt P15260 18-245).
T1 construct: also called hIFNgR1 ECD; human IFNgR1
T1 sequence: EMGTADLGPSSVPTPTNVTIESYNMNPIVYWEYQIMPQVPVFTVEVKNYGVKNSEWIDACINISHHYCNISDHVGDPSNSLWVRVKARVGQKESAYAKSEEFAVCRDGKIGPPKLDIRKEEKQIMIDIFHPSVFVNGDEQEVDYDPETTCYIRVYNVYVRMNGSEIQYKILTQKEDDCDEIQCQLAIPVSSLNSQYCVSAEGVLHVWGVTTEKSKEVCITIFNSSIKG
Kind of test: flow cytometry. Background: A flow cytometer gives signals particle by particle.

The target of test [2] is T2, extracellular domain of mIFNgR1 (mouse, UniProt P15261 26-254).
T2 construct: also called mIFNgR1 ECD; mouse IFNgR1
T2 sequence: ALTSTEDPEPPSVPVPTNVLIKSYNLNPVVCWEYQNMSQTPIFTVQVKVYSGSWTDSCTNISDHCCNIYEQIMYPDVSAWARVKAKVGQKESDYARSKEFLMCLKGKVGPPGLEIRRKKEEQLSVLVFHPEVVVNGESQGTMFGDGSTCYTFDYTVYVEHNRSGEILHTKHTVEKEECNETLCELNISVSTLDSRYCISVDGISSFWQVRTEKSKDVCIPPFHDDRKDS
Kind of test: flow cytometry, cross-reactivity.

Test [3] addresses T1, extracellular domain of hIFNgR1. As to the kind of experiment: periplasmic extract ELISA on coated antigen. The protocol: Upon completion of the biopanning of Example 3, three 96-well plates of individual phage clones were isolated in order to perform periplasmic extract ELISA (PE-ELISA) on IFNgR1 coated plates to identify positive VHH binders that selectively bound IFNgR1. A 96-well plate was coated with IFNgR1 and PBS under the same conditions. Next, wells were blocked at 37° C. for 1 h. Then, […] was added to each well and incubated for 1 h. Subsequently, 100 μl of anti-tag polyclonal antibody conjugated to HRP was added to each well and incubated at 37° C. for 1 h. Plates were developed with TMB substrate. The reaction was stopped by the addition of H2SO4. Absorbance at 450 nm was read on a microtiter plate reader. Antibodies with absorbance of the antigen-coated well at least threefold greater than PBS-coated control were considered to provide specific binding to IFNgR1. Positive clones were sequenced, and sequences analyzed to identify unique clonotypes
(In general: In an ELISA, binding on a coated surface is turned into a signal by an enzyme label.)

B1: DR909 (VHH)
VHH: EVQLVESGGGLVQAGGSLRLSCAASGRTFGTSFGALSMGWFRQAPGKEREFVAAITRNTGRTFYADSVKDRFTISRDNAKNTASLQMNSLEPEDTAVYICAATNSYDDLRRSYAYNYWGQGTQVTVSS
notes: also called hIFNgR1 VHH
With B1, the binding result in test [1] and in test [2] was “binds” in each case.

B2: DR923 (VHH)
VHH: QVQLVESGGGLVQAGGSLRLSCAASRRTFMTYAMGWFRQAPGKEREFVAAISWSSGSTYYADSVKGRFTISRDNAKNTMYLQMNSLKPEDTAVYYCTASSIATMYGPNDYAGQGTLVTVSS
notes: also called hIFNgR1 VHH
On to B2, for which the binding result in test [2] and in test [3] was “binds” in each case.

B3: DR911 (VHH)
VHH: EVQLVESGGALVQAGGSLRLSCTVSGRSFSTYAMAWFRRAPGKERELVSAITVGGGSTYYVDSVKGRFTISRENAKNTLYLQMNNLKPEDTAIYICAARDYRRRSYAPEAEQYDYWGQGTQVTVSS
notes: also called hIFNgR1 VHH
Regarding B3, the binding result in test [1] and in test [2] was “binds” throughout.

B4: DR905 (VHH)
VHH: EVQLVESGGGLVQAGGSLRLSCVASGRTFTGYAMGWFRQAPGKEREFVAVITWSGATTYYSASVKGRFTLSRDNAKNTVYLQMNSLKSEDTAVYYCAIRIRDGVSPENPNEYGYWGQGTQVTVSS
notes: also called hIFNgR1 VHH
For the molecule B4, the binding result in test [1] and in test [2] was “binds” in each case.

B5: DR926 (VHH)
VHH: EVQLVESGGGLVQAGGSLRLSCAASGRTFSRYAMNWFRQAPGKEREFVAAISWSSGNTYVADSVKGRFTISRDNAKNTMYLQMNNLAPEDTAVYYCAATTIATMSDENTYWGQGTQVTVSS
notes: also called hIFNgR1 VHH
With B5, the binding result in test [2] and in test [3] was “binds” in each case.

B6: DR903 (VHH)
VHH: EVQLVESGGGLVQAGGSLRLSCAASGRIASDYTRGWFRQAPGKEREFVAAIIRSVGDSYYADSVKGRFTISIDNAENTVYLQMNSLKPEDTAVYYCAVGGHLYYGSRWRYPASYDYWGQGTQVTVSS
notes: also called hIFNgR1 VHH
Take B6: the binding result in test [2] and in test [3] was “binds” throughout.

B7: DR910 (VHH)
VHH: EVQLVESGGGLVQTGGSLRLSCAASGRTFSSYAMAWFRQAPGKEREFVAAISILGGSADYEDSVQGRFTISRDNAKNTMYLQMNSLKPEDTAVYYCAARRPAPSDSYWSSTSYAYWGQGTLVTVSS
notes: also called hIFNgR1 VHH
For B7, the binding result in test [1] and in test [2] was “binds” in each case.

B8: DR907 (VHH)
VHH: EVQLVESGGGLVQAGGSLRLSCAASGRTFSNYAMGWFRQAPGNEREFVAAINWNIGSTYYADSVKGRFTISRDNAKNTVYLQMNSLKPEDTAVYYCGAVWPTGRLRVDSEYDYWGQGTQVTVSS
notes: also called hIFNgR1 VHH
Turning to B8, the binding result in test [1] and in test [2] was “binds” each time.

B9: DR917 (VHH)
VHH: EVQLVESGGGLVQAGGSLRLSCAASGRTFSGYNMGWFRQAPGKEREFVAAIAWAGSRTYYTDSVKGRFTISRDNAKNTMYLQMNTLRPEDTAVYYCAAHDETYYRLDRVDLYTHWGQGTLVTVSS
notes: also called hIFNgR1 VHH
Regarding B9, the binding result in test [2] and in test [3] was “binds” throughout.

B10: DR924 (VHH)
VHH: QVQLVESGGGLVQAGGSLRLSCTASGRTFSRYAMGWFRQAPGKEREFVATISRSGGTTSYANSVKGRFTISRDNAKNTVYLQMNSLKTEDTAVYNCAARDGPAMGVFGSDYDYWGQGTLVTVSS
notes: also called hIFNgR1 VHH
Take B10: the binding result in test [2] and in test [3] was “binds” throughout.

B11: DR916 (VHH)
VHH: EVQLVESGGGLVQPGGSLRLSCTASGRPRTTYAMGWFRQAPGKEREIVAAISKAGGSTYVADSAKGRFAISKDNAKNTVYLQMNSLKPEDTAVYYCAARAGFAAQIFEYDYWGQGTLVTVSS
notes: also called hIFNgR1 VHH
Take B11: the binding result in test [2] and in test [3] was “binds” throughout.

B12: DR914 (VHH)
VHH: EVQLVESGGGLVQAGGSLTLSCVASGRAFSNSAMAWFRQTPGKEREFVSAISRGGGSTDYADSVKGRFTISKDNAKNTVYLQMNSLKPEDTAVYYCAMRYYSGRYYESLEYDYWGQGTQVTVSS
notes: also called hIFNgR1 VHH
Turning to B12, the binding result in test [2] and in test [3] was “binds” in each case.

B13: DR913 (VHH)
VHH: EVQLVESGGGLVQAGGFLRLSCAASGRTFSSYAMGWFRQIPGKERELVAAISSWSGGSTYYADSVKGRFTISRDNAKNTVYLQMLSLKPEDTAVYYCTTGDYYSDYFKYDNENWGKGTQVTVSS
notes: also called hIFNgR1 VHH
Take B13: the binding result in test [2] and in test [3] was “binds” each time.

B14: DR922 (VHH)
VHH: QVQLVESGGGLVRAGGSLRLSCAASGSITSINTMGWFRQAPGKQRELVAAITSGGSTNYADSVKGRFTISRDNARNTVYLQMYSLKPEDTAVYYCEADSMYFRGQGTQVTVSS
notes: also called hIFNgR1 VHH
On to B14, for which the binding result in test [2] and in test [3] was “binds” in each case.

B15: DR918 (VHH)
VHH: EVQLVESGGGLVQAGGSLRLSCATSGLTDSTYGMAWFRQAPGKEREFVAAISRAGGSADHADSVKGRFTVSRDNAKKMVYLQMNSLKPEDTAVYYCASGRSYSSPYDYFNALAYSYWGQGTQVTVSS
notes: also called hIFNgR1 VHH
Consider B15, for which the binding result in test [2] and in test [3] was “binds” in each case.

B16: DR920 (VHH)
VHH: EVQLVESGGGLVQAGGSLRLSCAASGRSFANYAMGWFRQAPGKERETVAAISRGGGSTWYADSVKGRFTISKDNAKNTVYLQMNSLKPEDTAIYYCAARSYSGSYTYSFGEYDYWGQGTQVTVSS
notes: also called hIFNgR1 VHH
On to B16, for which the binding result in test [2] and in test [3] was “binds” each time.

B17: DR921 (VHH)
VHH: QVQLVESGGGLVQAGDSLRLSCAASGRTFTFSTHNMGWFRQAPGKEREFVGGIMWTSRASYADSVKGRFTVSRDNAKNTVYLQMNSLKPEDTAVYYCAAAWYGNSGASYDYWGQGTQVTVSS
notes: also called hIFNgR1 VHH
For the molecule B17, the binding result in test [3] was “binds”.

B18: DR904 (VHH)
VHH: EVQLVESGGGLVQAGGSLRLSCEASESILSINTMGWFRQAPGKQRELVAAISSGGSTNYADSVKGRFTISRDNAKNTVYLQMNSLKPEDTAVYYCDADRAYYKGQGTQVTVSS
notes: also called hIFNgR1 VHH
On to B18, for which the binding result in test [3] is recorded as “binds”.

B19: DR912 (VHH)
VHH: EVQLVESGGGLVQAGGSLRLSCAPSGRTFSSYAMAWFRQPPGKEREFVAAITVSGASTYYADSVKGRFTISRDNAKNSMYLQMNSLKPEDTAVYYCAAGGPGTIFPDYDYWGQGTQVTVSS
notes: also called hIFNgR1 VHH
As for B19, the binding result in test [2] and in test [3] was “binds” in each case.

B20: DR906 (VHH)
VHH: EVQLVESGGGLVQAGGSLRLSCAASGSTFSTYVMGWFRQAPGKEREFVAAISRSGGTTTYADSVKGRFDISRDNGKNTLFLQMNSLIPEDTAAYYCAARAGPAIGRTANDYHSWGQGTLVTVSS
notes: also called hIFNgR1 VHH
In the case of B20, the binding result in test [1] and in test [2] was “binds” throughout.

B21: DR919 (VHH)
VHH: EVQLVESGGGLVQPGGFLRLSCAASRRTLSTYAMGWFRQAPGKEREFVAAISWRSGNTYYADSVKGRFTISRDNAKNTMYLQMNSLKPEDTAVYYCAANEVATMSGPHDHWGQGTLVTVSS
notes: also called hIFNgR1 VHH
B21: in test [3], the binding result was “binds”.

B22: DR925 (VHH)
VHH: EVQLVESGGGLVQAGGSLVLSCAASGRTFSRYAMGWFRQAPGKEREFVAAISIGGGSADYADTVKGRFTISRNNAKNTMYLQMNSLKPEDTAVYYCAARTPRPSSSYFTPQDYEYWGQGTLVTVSS
notes: also called hIFNgR1 VHH
On to B22, for which the binding result in test [2] and in test [3] was “binds” each time.

B23: DR915 (VHH)
VHH: EVQLVESGGGLVQAGGSLRLSCAAARRTLHNFAMAWFRQAPGKEREFVAAISKGGGSADYADSVKGRFTISRDNAKNTVYLQMNSLKPEDTAVYYCAANDLASYSDSSYTSTSRYDYWGQGTQVTVSS
notes: also called hIFNgR1 VHH
For the molecule B23, the binding result in test [2] and in test [3] was “binds” in each case.

B24: DR908 (VHH)
VHH: EVQLVESGGGLVQAGGSLRVTCAASGRTFTSLAMGWFRQAPGKEREFVAAISRSGGSTDYADSVKGRFFISRDNAKSTLYLQMSSLKPEDTAVYYCAARDYSTLQYYNEYEYSDWGQGTQVTVSS
notes: also called hIFNgR1 VHH
As for B24, the binding result in test [1] and in test [2] was “binds” each time.
